Experimental data reported in PMC7948760.
Like-named read-outs stand apart in the source and are kept apart here.

Key:
[1] = target: OG488-TFPIα-BR, TFPIα-BR modified with Oregon Green488 maleimide (human); test: fluorescence polarisation; steady-state anisotropy; FV species (0–100 nM) titrated into 20 nM OG488-TFPIα-BR and 50 μM PCPS, assay buffer (20 mM HEPES, 0.15 M NaCl, 5 mM CaCl2, 0.1% PEG 8000, pH 7.4), 25 °C; fit to independent, noninteracting sites
[2] = target: TFPIα (Homo sapiens) (UniProt P10646); test: SPR; conditions: cited from earlier work
Sequence of TFPIα (Homo sapiens) (P10646 29-304): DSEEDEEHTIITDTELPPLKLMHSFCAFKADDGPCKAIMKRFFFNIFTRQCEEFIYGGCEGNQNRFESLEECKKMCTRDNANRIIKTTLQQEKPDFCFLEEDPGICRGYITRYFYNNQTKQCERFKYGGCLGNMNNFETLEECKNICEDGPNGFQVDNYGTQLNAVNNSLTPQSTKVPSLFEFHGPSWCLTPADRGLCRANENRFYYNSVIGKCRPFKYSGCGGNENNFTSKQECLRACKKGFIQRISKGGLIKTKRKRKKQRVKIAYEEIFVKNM

[3] = target: FV-short-QQ (FV-short with Arg709 and Arg1545 replaced with Gln) (human); test: fluorescence polarisation; competition: unlabeled TFPIα-BR (0–2 μM) or TFPIα (0–1 μM) titrated into 25 nM OG488-TFPIα-BR, 20 nM FV-short-QQ and 50 μM PCPS, assay buffer, 25 °C; stoichiometry of 1 assumed
[4] = target: FV-short (factor V isoform with B-domain residues 756 to 1458 deleted) (human); test: inhibition of prothrombinase (prothrombin activation assay); 0.1 nM cofactor species, 50 μM PCPS, 1.4 μM prothrombin, 3 μM DAPA, TFPIα 0–500 nM with a twofold excess of anti-K2 antibody to block FXa inhibition, started with 2 nM FXa, assay buffer, 25 °C; Ki from the equation for competitive inhibition
[5] = target: FV-short-QQ (FV-short with Arg709 and Arg1545 replaced with Gln) (human); test: as above
[6] = target: FV-short-QR∗ (FV-short-QR precleaved at Arg1545 with RVV-V) (human) (UniProt P12259); test: as above
Sequence of FV-short-QR∗ (FV-short-QR precleaved at Arg1545 with RVV-V) (human) (P12259 other isoform, or with tags, fused parts or gaps, chain 1 of 2): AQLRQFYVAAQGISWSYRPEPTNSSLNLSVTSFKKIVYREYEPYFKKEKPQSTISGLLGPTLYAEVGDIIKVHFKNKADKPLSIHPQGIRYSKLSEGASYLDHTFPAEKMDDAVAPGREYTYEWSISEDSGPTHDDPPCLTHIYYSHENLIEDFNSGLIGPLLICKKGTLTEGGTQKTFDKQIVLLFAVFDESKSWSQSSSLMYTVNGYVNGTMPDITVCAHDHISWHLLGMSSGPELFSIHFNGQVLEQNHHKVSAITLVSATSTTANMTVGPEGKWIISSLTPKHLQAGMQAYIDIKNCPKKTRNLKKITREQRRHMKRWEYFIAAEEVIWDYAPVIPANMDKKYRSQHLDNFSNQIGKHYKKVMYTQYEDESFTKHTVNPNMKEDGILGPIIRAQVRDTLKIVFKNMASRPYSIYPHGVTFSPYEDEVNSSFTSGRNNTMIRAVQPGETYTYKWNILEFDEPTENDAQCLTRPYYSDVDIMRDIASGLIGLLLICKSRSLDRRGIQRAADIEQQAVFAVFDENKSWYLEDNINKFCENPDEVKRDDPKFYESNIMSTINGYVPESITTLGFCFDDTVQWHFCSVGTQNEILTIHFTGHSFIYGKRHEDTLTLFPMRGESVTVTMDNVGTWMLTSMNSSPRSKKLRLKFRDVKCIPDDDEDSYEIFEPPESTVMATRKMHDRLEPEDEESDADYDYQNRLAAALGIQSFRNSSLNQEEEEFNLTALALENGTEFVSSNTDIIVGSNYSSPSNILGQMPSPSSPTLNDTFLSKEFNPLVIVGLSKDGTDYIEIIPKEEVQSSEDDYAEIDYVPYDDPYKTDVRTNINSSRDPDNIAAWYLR
Sequence of FV-short-QR∗ (FV-short-QR precleaved at Arg1545 with RVV-V) (human) (P12259 1574-2224, chain 2 of 2): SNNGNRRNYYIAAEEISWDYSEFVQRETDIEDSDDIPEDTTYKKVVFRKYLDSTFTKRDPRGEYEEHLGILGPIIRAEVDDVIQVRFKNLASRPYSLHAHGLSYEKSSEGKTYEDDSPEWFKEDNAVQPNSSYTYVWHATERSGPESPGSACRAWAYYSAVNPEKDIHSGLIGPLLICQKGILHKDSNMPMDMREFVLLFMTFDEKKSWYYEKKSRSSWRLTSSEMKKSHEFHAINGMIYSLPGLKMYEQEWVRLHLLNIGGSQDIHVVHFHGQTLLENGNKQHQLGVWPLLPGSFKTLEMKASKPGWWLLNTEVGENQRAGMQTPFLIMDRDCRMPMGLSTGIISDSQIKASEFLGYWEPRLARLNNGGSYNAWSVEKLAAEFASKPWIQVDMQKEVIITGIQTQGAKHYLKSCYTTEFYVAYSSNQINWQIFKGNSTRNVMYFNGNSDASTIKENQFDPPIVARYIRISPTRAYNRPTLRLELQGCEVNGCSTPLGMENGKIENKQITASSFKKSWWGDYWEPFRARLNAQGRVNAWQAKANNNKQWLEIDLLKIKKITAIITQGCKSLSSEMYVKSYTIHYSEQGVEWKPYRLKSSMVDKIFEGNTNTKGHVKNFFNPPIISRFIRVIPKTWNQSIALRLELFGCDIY

[7] = target: FV-short-RQ∗ (FV-short-RQ precleaved at Arg709 with thrombin) (human) (UniProt P12259); test: as above
Sequence of FV-short-RQ∗ (FV-short-RQ precleaved at Arg709 with thrombin) (human) (P12259 29-737, chain 1 of 2): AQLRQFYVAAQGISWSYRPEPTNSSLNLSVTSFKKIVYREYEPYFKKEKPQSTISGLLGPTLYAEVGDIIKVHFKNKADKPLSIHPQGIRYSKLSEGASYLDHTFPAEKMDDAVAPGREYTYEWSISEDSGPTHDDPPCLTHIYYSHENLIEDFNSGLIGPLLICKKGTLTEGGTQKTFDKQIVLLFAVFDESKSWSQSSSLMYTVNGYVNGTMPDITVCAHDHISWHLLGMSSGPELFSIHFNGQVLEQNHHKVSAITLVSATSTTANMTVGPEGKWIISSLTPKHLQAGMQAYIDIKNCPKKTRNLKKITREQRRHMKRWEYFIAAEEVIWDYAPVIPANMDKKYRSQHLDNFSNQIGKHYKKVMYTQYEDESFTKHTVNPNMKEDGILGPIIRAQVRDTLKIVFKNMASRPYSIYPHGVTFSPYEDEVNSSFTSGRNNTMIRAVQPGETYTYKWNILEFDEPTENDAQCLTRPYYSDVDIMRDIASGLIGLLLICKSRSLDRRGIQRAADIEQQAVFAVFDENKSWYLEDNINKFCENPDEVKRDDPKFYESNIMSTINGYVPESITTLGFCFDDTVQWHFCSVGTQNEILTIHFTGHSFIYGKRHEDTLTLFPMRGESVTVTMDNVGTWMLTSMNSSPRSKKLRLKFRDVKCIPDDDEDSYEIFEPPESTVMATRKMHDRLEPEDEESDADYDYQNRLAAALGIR
Sequence of FV-short-RQ∗ (FV-short-RQ precleaved at Arg709 with thrombin) (human) (P12259 other isoform, or with tags, fused parts or gaps, chain 2 of 2): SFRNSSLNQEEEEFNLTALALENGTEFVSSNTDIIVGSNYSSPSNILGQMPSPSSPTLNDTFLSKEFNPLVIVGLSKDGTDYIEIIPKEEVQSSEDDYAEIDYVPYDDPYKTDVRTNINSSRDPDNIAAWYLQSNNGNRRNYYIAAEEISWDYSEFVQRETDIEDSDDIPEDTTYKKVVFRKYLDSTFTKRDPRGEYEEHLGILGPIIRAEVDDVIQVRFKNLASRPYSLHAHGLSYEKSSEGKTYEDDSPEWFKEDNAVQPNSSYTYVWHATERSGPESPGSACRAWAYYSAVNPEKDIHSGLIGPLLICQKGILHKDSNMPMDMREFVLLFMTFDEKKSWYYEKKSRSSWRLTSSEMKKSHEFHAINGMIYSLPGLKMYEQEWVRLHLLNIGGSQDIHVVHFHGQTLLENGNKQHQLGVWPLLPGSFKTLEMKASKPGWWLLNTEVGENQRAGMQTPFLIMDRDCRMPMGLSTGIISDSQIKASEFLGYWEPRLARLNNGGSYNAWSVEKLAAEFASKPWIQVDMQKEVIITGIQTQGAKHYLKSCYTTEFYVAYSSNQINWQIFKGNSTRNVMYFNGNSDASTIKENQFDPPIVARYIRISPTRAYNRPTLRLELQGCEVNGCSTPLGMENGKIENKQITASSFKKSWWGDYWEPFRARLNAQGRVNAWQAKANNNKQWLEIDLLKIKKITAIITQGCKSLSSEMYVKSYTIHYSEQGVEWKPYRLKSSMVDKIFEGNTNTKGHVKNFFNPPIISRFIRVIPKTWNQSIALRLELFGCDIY

[8] = target: activated factor V (FVa) (human) (UniProt P12259); test: as above
Sequence of activated factor V (FVa) (human) (P12259 29-737, chain 1 of 2): as the sequence (P12259 29-737, chain 1 of 2) above
Sequence of activated factor V (FVa) (human) (P12259 1574-2224, chain 2 of 2): as the sequence (P12259 1574-2224, chain 2 of 2) above

[9] = target: FV-short (factor V isoform with B-domain residues 756 to 1458 deleted) (human); test: as above; remark: listed apart in the source
[10] = target: FV-short-QQ (FV-short with Arg709 and Arg1545 replaced with Gln) (human); test: as above; remark: listed apart in the source
[11] = target: FV-short-RQ∗ (FV-short-RQ precleaved at Arg709 with thrombin) (human) (UniProt P12259); test: as above; remark: listed apart in the source

Sequence of factor V (P12259 1574-2224): as the sequence (P12259 1574-2224, chain 2 of 2) above

Question: For “FV-short (factor V isoform with B-domain residues 756 to 1458 deleted) (natural protein)”, which stoichiometry N [1] is on record?
Answer: Its stoichiometry N is 1.25.

Question: With factor V (from UniProt P12259) as the substance, how does the Kd [2] read?
Answer: Its Kd is 13 nM.

Question: Which results are given for “tissue factor pathway inhibitor alpha (TFPIα), full-length (from UniProt P10646-1 29-304) (natural protein)”?
Answer: Kd [3]: 0.73 nM; Ki [4]: 0.23 nM; Ki [5]: 0.11 nM; Ki [6]: > 500 nM; Ki [7]: 0.24 nM; Ki [8]: > 500 nM; Ki [9]: 0.14 nM; Ki [10]: 0.1 nM; Ki [11]: 0.26 nM
